Data taken from the DeepSol protein solubility set.

Assay: soluble on expression in E. coli; label from the status in PepcDB or PDB records

Sequence	soluble on expression in E. coli
SENLTMNIDSTKTIQGTILPVLDFKTEKENVFTFKNTANLNLLIKHGQVINLINKLEFSTYGNKVTVSGGYVHTEYRYLLHHVFEVYPYVESQWAESRGMKYKVSTGLQSRYR	not soluble
MGSDKIHHHHHHMDKLDNYIVTILEKSITPRKSPFLHTILAGRRTGQAVQDAHLFQMQHLFGLVPNLKLNYLETRLKELMRQGIITVTENGYTVKQKPNFSFEMSFPSFHGFAFQQQVFAFFAHLRLAVQVVSNKHHAEKYYLPVIRDKKVQQFIKIWLQNQQQEDLADRLYIELIKWFNSLAVSRPEFLVERFSGGKLMGYTTEQIATKYQVEKWDVYFEVLHELHRLIAAIKESEEEWPLLASLIPNELMSLTSSAIKTYTLWAKGMDLEMIERIRNLKTSTIQDHFVEIRATLKEAQVPYLPEEELIQSINSRNWHLLRDIKAAFPDLDYYQIRLAVVSKEDEQ	not soluble
QKIEKQYDADLEQILIQWITTQCRKDVGRPQPGRENFQNWLKDGTVLCELINALYPEGQAPVKKIQASTMAFKQMEQISQFLQAAERYGINTTDIFQTVDLWEGKNMACVQRTLMNLGGLAVARDDGLFSGDPNWFPKKSKE	soluble
MTYETISVRMNRSDRNIRWGFSVRQQADGLIIDRVEAESLSDKAGVKHNDKVDQINGRSTRGLDAASANRLIDDSFNEVRLSLQRFVTSHTTLPWTLNEKDNKMVVEEMKPGFGTGFGSGFGSSNFVNSSFNQNQNNFGSHFGTGSGVNQRNITNTNTSSSNHQSSTFHSSSHQSSGNYGSGGFSPSSHHNIPIRHSPAPPFTTSNSSYNNIKKSTDNTILPGSANYNPNNSSNYNSVPTGFGASSGGYGGSGGFKGHSNGSAIPAQAPPTSYSYNNGATSQPYGAGSGGTPLNQMTFINTSPAPGANGAYGAQCGLSPSKVFYHSPSGRSRNELSPGAAVHHLQYNSPMNLYSSEATAEQLYQQTGAVPEGPVPHDKSPAYLTSETRKLIEEEARGRFQRGKSPSSQSSCFKRISHAVGADH	not soluble
MGSDKIHHHHHHMEQDDKKLFVLDTNVLLHEPLAIYSFKEHDVVVPMTVLEELDQIKDRKRDVSRDARVAIRALEDILGGQTTPEEIVSGVPLPKREGHGDAVGSLSIFPDHQLEFTQASLPGDNNDNRIINTALHLQNQFAPRHVVLVTKDINMRLKAKGAGINLVEDYRTDQLIDDIRFLTKGFHQFEGDFWARKEHVNTETQGRHTVHRVPVKEVGEENFYTNQYLIDEDSNFCGRVLSNNDEELEILDLGRDRLLNLDAWGIKPKNVYQGMAMQALLDPDIDLVILTGPAGCGKTLLAMAAALEMVVERGLYDKVIVTRNTPEIAESIGFLPGTEEEKMAPWLAAITDTLEVLHKHDVNPSGSMNYIMDKANIQFKSINFMRGRSIQNSVVLLDECQNLTASQIKTMITRMGEGTKLICSGNLAQIDSNYLTAVTSGLTYIVERFKNFDGSANIYLNGVVRSRLAEFAEENL	not soluble
MAMVPAKSLATTCVASKRMMWQIPEKWTMEEASTVPCVYSTVYYALVVRGQMKKGEKILIHAGSGGVGQAAISVALAHGLTVFTTVGSKEKREFLLKRFPKLQERNIGNSRDTSFEQLVLRETKGRGVDLVLNSLSEEKLQASIRCLGLNGRFLEIGKFDLSNNSPLGMSVFLKNTSFHGILLDSVMEGEEEMQNQVVSLVAEGIKTGAVVPLPTSVFNDQQVEQAFRFMASGKHIGKVVIK	soluble
MSLGGSIKSPQSLTIDIIKRDYLNFKNKKILSFKDIKPKYDSQSDYHGNAIYYFMFYNKLKEFENIQNEKFKIKKEILKSYIIIIDEINRGNVSKIFGELITLIEPSKRIGEKEELKVTLPYSGEKFGVPKNVYIIGTMNTADRSITSLDTALRRRFEFVEMMPDVSKLSMDCEGINLQELLKAINTRIEYLLDREKTIGHAFFVSVENLEDLKKVFQNKIIPLLQEYFYNDYALINAVLNDNDMIFEDKKDDKYLQKIKNLDSVNSERSIYNIASFDDKIWDKIEIYQAIYNDEIANKLKNEGHHHHHH	not soluble
MAAQATAETPAGELPVIDAVTTHAPEVPPAIDRDYPAKVRVKMETVEKTMKMDDGVEYRYWTFDGDVPGRMIRVREGDTVEVEFSNNPSSTVPHNVDFHAATGQGGGAAATFTAPGRTSTFSFKALQPGLYIYHCAVAPVGMHIANGMYGLILVEPKEGLPKVDKEFYIVQGDFYTKGKKGAQGLQPFDMDKAVAEQPEYVVFNGHVGALTGDNALKAKAGETVRMYVGNGGPNLVSSFHVIGEIFDKVYVEGGKLINENVQSTIVPAGGSAIVEFKVDIPGNYTLVDHSIFRAFNKGALGQLKVEGAENPEIMTQKLSDTAYAVPR	soluble
MKGILGFEYGIVQAPLGPDISGPELVAAVANAGGIGLLRCPDWECPDYLRELIRKTKTLTEKPFGIGVVLAFPHDLNIKTILEEKVAVLQLYWGDCSQELVDDAHFAGVKVIPQVGNVEEARKAVAVGVDAIIVQGREAGGHVIGKDGLFSLLPRVVDLVGERDIPVIAAGGIVDGRGYVAALSLGAQGVCLGTRFVATHESYAHPIYKRKLIEYEKTEYTDVFGRARWPGAPQRVLETPFFDDWRSLPAHENEVNQPIIGRSTIHGVEKEIRRFSGTVPNMTTTGDLESMAMYAGQSVGLIKEILPAGEVVKSLVEEAQALILQKFNNATTT	not soluble
MVTQTNPVPVTYPTDAYIPTYLPDDKVSNLADLKKLIEMDSRLDLYLTRRRLDTSINLPTNTKTKDHPPNKEMLRIYVYNTTESSPRSDSGTPADSGKTTWTLRIEGKLLHESANGKHPFSEFLEGVAVDFKRLKPLGMGKKRKRDSSLSLPLNLQQPEYNDQDSTMGDNDNGEDEDSAEAESREEIVDALEWNYDENNVVEFDGIDIKRQGKDNLRCSITIQLRGVDGGKVQYSPNLATLIGMQTGSVNDAVYSIYKYILINNLFVTEQTEAQDGSNDAEDSSNENNNKNGAGDDDGVEGSTPKDKPELGEVKLDSLLQKVLDTNAAHLPLMNVVQTVNKLVSPLPPIILDYTIDLSKDTTYGATTLDVDVSHILHQPQPQPNLQKEEETDAEDTAKLREITKLALQLNSSAQKYQFFHELSLHPRETLTHYLWSSKQNELVLQGDQYFNEDAARTSDIYSNNNNDRSLMGNISLLYSQGRL	soluble
MPTITLRLELHNPTKVKQDMYERMTEVNTAFANWLLNHPELNQATSKIFKEFSPQRFPSAVVNQTIREVKSQKKNQKTKKFRTFWCCFNNQNVKVEKKGAFYTVSFPTLEKRIGVPVVTRPYQEAWLNRLLDGTAKQGAAKLYKKRTKWYLAIAITFEVKPRHETKVMGVDLGLRYIAVASVGTKSLFFKGSQCAFIRRRYAALRRTLGKAKKLQMIRKIGRKESRWMKDQNHKISRQIVNVALANGVGVIRMEALTGIRKRAKSAKEAGRSLHSWAFHQLQTMIAYKAEMAGIRVEWVKPTYTSQTCKCGHREKGNRNGIHFQCKQCGYTLHADLNGAINIAKAISGFVAEPSALVTGAPPIGVHRNPMGRGDDTPLNLGVVRTRNG	not soluble
DKVTQSSPDQTVASGSEVVLLCTYDTVYSNPDLFWYRIRPDYSFQFVFYGDDSRSEGADFTQGRFSVKHILTQKAFHLVISPVRTEDSATYYCAFTLPPPTDKLIFGKGTRVTVEP	soluble
MKRIGVVLGRREATPLEFWVGVEGDGLLRLDDLVVVEGFHPQVGQVRFFGMVDHVAKVHEGESFDTDTFLAVEGKIPVSLAYVAHVSVTRILPEEFFPPDPGSPVYLAQEEDLELALYYDAMRNQRGSTKLPAGLLKNGEVAYLNLEFLNGVKGGHVNISGISGVAAKTSYATFLLKSLLESGVLEDAHQARVLLFNVKGEDLFFLDKPNARLTEEARKAYARLGLPATPFQSVAFLAPPKKAGYLPDVDTRLEGVEAYHWDLVQFCQRGLLPFLFADRAAMTNLGFLVAHVTEKLKRLAEGQKGPHLQVEDWPGGEASEGMSFDQLGKARLKSFSDLVRYLEYKLLGPETGEGEGDRGWTARQAKGTLEAFVRRLRSSVENVAHLVRGDRPGSPPDPLSGKAQVHVVDLAKLSPQAQMFVVGSLLKDLFERKERGQYRGRVFIVLDELNKYAPREEESPIKDVLLDIAERGRSLGVILIGAQQTASEVERRVVGNAAIRVVGRLDAAEAERPEYRYLPTSFRQRALILPQGAVILHQPEIPVPLLVHFPFPAWATKREEVLEDNSAEALRREFFR	soluble
MGSDKIHHHHHHMIKVLHLFTTLDSGGVESFLFNYYSHIDRKKIQFDFIVPGKEQGFLEDKMKELGAKVYHVPLLRKKPLHQFLSLARIIKKGDYDIVHCHGYKSAIGLILSKIIGCKIRIIHSHMAYVTENSFQKVLRKLVTILVKILATHWFACGEDSAKWLYGEKAYKDGKIEIIFNAIDLKKYQFLSDVREKCRRELDVSNKFVLGNIARLSDQKNQSYLFNVLKELILIKPNVILLLVGNGEDEQKLKQKALELNLTPYVLFLGRRTDISDLLSAMDVFLLPSKYEGLPVSLVEAQASGLQILSSDTVTQEVDVTKNISYLPINEESVLLWKDKVLSLTSEECNRFEINNSMTDGLYDICYQASKLLNRYQEMCVIKEI	not soluble
MSLFIHIVGPGDSLFSIGRRYGASVDQIRGVNGLDETNIVPGQALLIPLYVYTVQPRDTLTAIAAKAFVPLERLRAANPGISPNALQAGAKITIPSISNYIAGTLSFYVLRNPDLDRELINDYAPYSSSISIFEYHIAPNGDIANQLNDAAAIETTWQRRVTPLATITNLTSGGFSTEIVHQVLNNPTARTNLVNNIYDLVSTRGYGGVTIDFEQVSAADRDLFTGFLRQLRDRLQAGGYVLTIAVPAKTSDNIPWLRGYDYGGIGAVVNYMFIMAYDWHHAGSEPGPVAPITEIRRTIEFTIAQVPSRKIIIGVPLYGYDWIIPYQPGTVASAISNQNAIERAMRYQAPIQYSAEYQSPFFRYSDQQGRTHEVWFEDVRSMSRKMQIVREYRLQAIGAWQLTLAEGHHHHHH	soluble
MSAMENESNKDTNTETKSVPEEMEASKYVGQGFQPPAEKDAIEFAKKHRKEFEKVGEQFFKDNFGLKVKATNVVGKDDGVEVYVHCEDHGIVFNASLPLYKDAIHQKGSMRSNDNGDDMSMMVGTVLSGFEYRAQKEKYDNLYKFFKENEKKYQYTGFTKEAINKTQNVGYQNEYFYITYLSRNLKEYRKYYEPLIHKNDKEFKEGMQQARKELDYTANTDAVSTLFSTKKNFTKDNTVDDVIELSNKLKEKPNMPQKSQVTIQLGKSSINTKKPFYDDINPIEGLEHHHHHH	soluble
MGSDKIHHHHHHMKKPQSNFPHLQLKDGILKDQLYHAFREAILDGRLHPRMKLPSSRALSETMQISRNSVLQGFERLIDEGYLLTKPGSGTYVSDTIPDELIDIPNSSRESAQAFDSNVDINPQLIEMARLKAKGNTDHSHSMLNIGVGCVDLFPHQLWGRLLGRVWRQSRKTLGKSNHSAGYLPLREAISDYARSTRGLNCTPEQIIIVNGTQQAINLTAQVLLQQGDEVWLDEPGYDGALGAFLSQNMRVRPVSVDVEGTNIADAIQRYPAVKLAFTAPSHQFPLGGMLSLPRRLALLDWAAEQSKWILEDDYNGEFRYSARPIQALQGLDKYQRVIYAGTFSKMLLPELRLGFLVVPSKLVQAFQLAKHYADTHTAHLEQATLALFITEGHYARHVRRVRKACLARQTALIAAIEQYLPDKLSVQTSDSGIHLVCWLKGDLTEEKVINKCRQLSLGAQPLSRYCQAPYPRQAILLGYAAHTPDELRESIKKLAQIL	not soluble
